Measured values as given in patent publication US5973116.

Target: human placental alkaline phosphatase (hPLAP) (human) (UniProt P05187)
Experiment: ELISA plate with bound antigen, washed with copious amounts of 50 mM DEA

Substance | percent washed off with 50 mM DEA [%]
H17-BSRNaseKDEL | 40
H17-Link-BSRNaseKDEL | 40
H17-BSRNase | 40
single-chain H17E2 antibody (scFv) | > 90
